In this series the test system is ATP. The series is described as follows: switch fluorescence ratio, 500 uM ATP over buffer (Cy3 cluster intensity, sum of 5 cycles each) (fold (ratio)); higher = stronger signal-on switching upon ATP binding; sequences stand for … in TCGTCGGCAGCGTCAGATGTGTATAAGAGACAGTTTTTTTTTTTTTTTTTTTTTTTTT…TC. The note with it: aptamer strand: ATP DNA aptamer (quencher-CACCTGGGGGAGTATTGCGGAGGAAGG + anchor), 100 nM annealed; ATP concentration: 500 uM. The procedure, abridged:
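For every switch-domain sequence, the fluorescence ratio is the mean of per-cluster values, each being summed target-cycle Cy3 intensity over summed buffer-cycle Cy3 intensity. Clusters outside 100-1000 RFU were excluded. On a modified Illumina MiSeq flow-cell, the Cy3-labelled switching-strand clusters were annealed to 100 nM quencher-labelled ATP aptamer, imaged in selection buffer and then after 15 min with 500 uM ATP at 22 °C. Five such cycles were run, with NaOH stripping and re-annealing between them.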

± gives the standard deviation of the averaged measurements.
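Also: ATP exposure 15 min at 22 °C before imaging.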

As to TGGTGGTGGC, the switch fluorescence ratio is 0.981 ± 0.0072.
Under TGGTGTCTAT stands 1.007 ± 0.0087; under TGGTGTGACA, 0.995 ± 0.065; under TGGTGTTGGG, 0.983 ± 0.015.
Under TGGTGTTTTG stands 0.999 ± 0.031; under TGGTTAAATC, 1.03 ± 0.019.
As for TGGTTACGGG, the switch fluorescence ratio came to 0.993 ± 0.012.
On to TGGTTATGTA, for which the switch fluorescence ratio worked out at 1 ± 0.014.
Under TGGTTCAAGT stands 0.984 ± 0.011; under TGGTTGAATA, 0.998 ± 0.05; under TGGTTGCAGG, 1.05 ± 0.042.
For the sequence TGGTTGGCGT, the switch fluorescence ratio came to 1.04 ± 0.066.
On to TGGTTGGTGT, for which the switch fluorescence ratio is 1.06 ± 0.015.
With TGGTTGTGGG, the switch fluorescence ratio is 0.996 ± 0.028.
In the case of TGGTTTAGTG it was 0.976 ± 0.031.
Regarding TGGTTTCCTT, the switch fluorescence ratio is 0.955 ± 0.025.
TGGTTTCGTG: the switch fluorescence ratio was 1.01 ± 0.023.
For the sequence TGGTTTGGAA, the switch fluorescence ratio amounted to 0.998 ± 0.05.
Under TGGTTTGGGA stands 1 ± 0.029; under TGGTTTTTAA, 0.977 ± 0.052; under TGGTTTTTGA, 0.988 ± 0.038.
On to TGTAAAAAAA, for which the switch fluorescence ratio came out at 1.04 ± 0.044.
Take TGTAAAACTA: the switch fluorescence ratio was determined as 1.02 ± 0.028.
Consider TGTAAAGGGT, for which the switch fluorescence ratio was 0.9778 ± 0.0084.
For TGTAAATTTT, the switch fluorescence ratio was 1.03 ± 0.041.
As to TGTAACTTGC, the switch fluorescence ratio worked out at 1.077 ± 0.0036.
As for TGTAAGAAAA, the switch fluorescence ratio worked out at 0.985 ± 0.052.
Under TGTAAGAGCG stands 0.9934 ± 0.0022.
For TGTAAGCTAG, the switch fluorescence ratio stood at 1.017 ± 0.0066.
With TGTAAGGGAA, the switch fluorescence ratio amounted to 1.01 ± 0.018.
On to TGTAAGGTCG, for which the switch fluorescence ratio turned out to be 1.013 ± 0.01.
On to TGTAAGGTGA, for which the switch fluorescence ratio came out at 1.03 ± 0.022.
TGTAAGTATT: the switch fluorescence ratio is 1.02 ± 0.018.
In the case of TGTAATTACA, the switch fluorescence ratio turned out to be 1.003 ± 0.0061.
For the sequence TGTAATTTCG, the switch fluorescence ratio came to 1.03 ± 0.04.
On to TGTAATTTTC, for which the switch fluorescence ratio turned out to be 1.05 ± 0.12.
On to TGTACAAAAT, for which the switch fluorescence ratio is 0.986 ± 0.047.
In the case of TGTACCGTGC, the switch fluorescence ratio turned out to be 1.07 ± 0.068.
Under TGTACGAGAA stands 1.003 ± 0.0035; under TGTACGGGGT, 1.01 ± 0.021; under TGTACTAGGG, 1.001 ± 0.0069.
Under TGTAGAAAGG stands 1.03 ± 0.046; under TGTAGACTGA, 1.01 ± 0.011.
As for TGTAGAGCCA, the switch fluorescence ratio was found to be 1.03 ± 0.035.
As to TGTAGCAGGG, the switch fluorescence ratio turned out to be 1.12 ± 0.043.
As to TGTAGGCGGC, the switch fluorescence ratio worked out at 1.02 ± 0.015.
As to TGTAGTGTTG, the switch fluorescence ratio was determined as 1 ± 0.043.
Turning to TGTAGTTTGG, the switch fluorescence ratio worked out at 1.02 ± 0.032.
Consider TGTATATTTT, for which the switch fluorescence ratio was found to be 0.98 ± 0.021.
Under TGTATGAACT stands 0.98027 ± 3.7e-05; under TGTATTAAGG, 1.01 ± 0.036; under TGTATTATGG, 0.968 ± 0.0097.
In the case of TGTATTGAAC it was 1.03 ± 0.0024; in that of TGTATTGTGG, 0.987 ± 0.021.
Under TGTATTTGGC stands 0.914 ± 0.044.
In the case of TGTATTTTTA, the switch fluorescence ratio came out at 1.01 ± 0.029.
In the case of TGTCAGTTGG it was 1.02 ± 0.06.
In the case of TGTCCATGGG it was 1.013 ± 0.0047.
In the case of TGTCCCAAGC it was 1.18 ± 0.03; in that of TGTCCGTTGG, 1.05 ± 0.084.
Take TGTCCGTTTG: the switch fluorescence ratio worked out at 1.01 ± 0.023.
Take TGTCCTAAAA: the switch fluorescence ratio stood at 1.05 ± 0.04.
With TGTCCTCAAT, the switch fluorescence ratio came to 1.22 ± 0.02.
For the sequence TGTCGCTGGG, the switch fluorescence ratio worked out at 1.02 ± 0.01.
On to TGTCGGCGGT, for which the switch fluorescence ratio worked out at 1.05 ± 0.065.
Consider TGTCGGGGTA, for which the switch fluorescence ratio was determined as 0.995 ± 0.016.
As to TGTCGTGTTT, the switch fluorescence ratio amounted to 0.9679 ± 0.0014.
On to TGTCGTTGGG, for which the switch fluorescence ratio stood at 0.9566 ± 0.0035.
As to TGTGAAAAGT, the switch fluorescence ratio was found to be 0.996 ± 0.028.
As for TGTGAAAATT, the switch fluorescence ratio came out at 1.01 ± 0.051.
In the case of TGTGAAACCT, the switch fluorescence ratio stood at 1.95 ± 1.2.
In the case of TGTGACCGAA it was 0.9794 ± 0.0017; in that of TGTGACGGGA, 1.091 ± 0.0051; in that of TGTGAGGCGC, 1 ± 0.044.
For the sequence TGTGAGGCTA, the switch fluorescence ratio amounted to 1.03 ± 0.012.
TGTGAGTGTA: the switch fluorescence ratio came to 1.01 ± 0.025.
Regarding TGTGATGCTG, the switch fluorescence ratio worked out at 1.02 ± 0.044.
TGTGATTGTT: the switch fluorescence ratio is 1.02 ± 0.013.
Take TGTGATTTTC: the switch fluorescence ratio was 1.01 ± 0.016.
Take TGTGCAAAGG: the switch fluorescence ratio is 0.997 ± 0.042.
With TGTGCGTGAG, the switch fluorescence ratio came out at 0.9776 ± 0.0015.
For TGTGCTATTT, the switch fluorescence ratio is 1.09 ± 0.17.
On to TGTGCTTGGG, for which the switch fluorescence ratio was 1.04 ± 0.027.
Regarding TGTGGAAGTT, the switch fluorescence ratio is 0.9686 ± 0.0021.
Take TGTGGACCAC: the switch fluorescence ratio is 1.04 ± 0.038.
In the case of TGTGGAGCAT it was 1.29 ± 0.071.
Turning to TGTGGATGTC, the switch fluorescence ratio came out at 0.977 ± 0.038.
As for TGTGGCAATT, the switch fluorescence ratio turned out to be 1.07 ± 0.037.
For TGTGGCATTA, the switch fluorescence ratio was 0.992 ± 0.023.
Take TGTGGCGTAT: the switch fluorescence ratio was found to be 1.011 ± 0.0014.
Turning to TGTGGGAATT, the switch fluorescence ratio worked out at 1.01 ± 0.049.
As for TGTGGGATGT, the switch fluorescence ratio amounted to 0.9704 ± 0.0039.
In the case of TGTGGGCAAT it was 1.56 ± 0.77; in that of TGTGGGCAGT, 1.02 ± 0.03; in that of TGTGGGCGGA, 1.001 ± 0.0079.
As for TGTGGGGATT, the switch fluorescence ratio is 1.02 ± 0.032.
Turning to TGTGGGGCGG, the switch fluorescence ratio turned out to be 1.01 ± 0.051.
As to TGTGGGGGCA, the switch fluorescence ratio came to 0.9953 ± 0.0057.
Under TGTGGGGGCG stands 1.01 ± 0.017; under TGTGGGGGGT, 0.992 ± 0.027; under TGTGGGTTCC, 1.06 ± 0.11.
Turning to TGTGGTAGGT, the switch fluorescence ratio was 1.01 ± 0.057.
Consider TGTGGTTGGT, for which the switch fluorescence ratio came out at 1.01 ± 0.032.
On to TGTGGTTTTG, for which the switch fluorescence ratio was determined as 0.9586 ± 0.0042.
Turning to TGTGTAAGAC, the switch fluorescence ratio was found to be 1.16 ± 0.022.
With TGTGTATCGG, the switch fluorescence ratio stood at 0.958 ± 0.034.
For the sequence TGTGTATGGT, the switch fluorescence ratio was 1.01 ± 0.022.
For the sequence TGTGTATTGG, the switch fluorescence ratio was found to be 1 ± 0.045.
On to TGTGTATTTT, for which the switch fluorescence ratio worked out at 0.992 ± 0.028.
With TGTGTCAGTG, the switch fluorescence ratio worked out at 1.01 ± 0.081.
Consider TGTGTGAAAA, for which the switch fluorescence ratio was 1 ± 0.032.
Turning to TGTGTGGCGC, the switch fluorescence ratio turned out to be 1.02 ± 0.032.
As for TGTGTGGGGA, the switch fluorescence ratio was found to be 1.01 ± 0.027.
TGTGTGGGTC: the switch fluorescence ratio turned out to be 0.991 ± 0.028.
Under TGTGTGTGAA stands 0.996 ± 0.035; under TGTGTGTGGG, 1.03 ± 0.012; under TGTGTTCCCT, 0.982 ± 0.028.
Take TGTGTTCCTT: the switch fluorescence ratio stood at 1 ± 0.018.
For the sequence TGTGTTTGTT, the switch fluorescence ratio is 0.998 ± 0.017.
For TGTTAAAATT, the switch fluorescence ratio is 0.969 ± 0.063.

These data come from the supplement of paper PMC10126150.
